Assay results as given in patent US20100196385A1.

B1: 20G8 (antibody, IgG4, V domains shown)
VH: QVQLVQSGAEVKKPGASVKVSCKASGYTFTSYGISWVRQAPGQGLEWMGWISVYNGNTNYAQKLQGRVTMTTDTSTSTAYMEVRSLRSDDTAVYYCARDRVPRIPRTTEAFDIWGRGTMVTVCS
VL: QSVLTQPPSASGTPGQRVTISCSGSSSNIGSYYVYWYQQLPGTAPKLLIYRDNQRPSGVPDRFSGSKSGTSASLAIRGLRSDDEADYYCAAWDDSLSGHWVFGGGTKLTVL
B2: 4B4 IgG1 (antibody, V domains shown)
VH: QVLLIQSGAEVKKPGASVQVSCKASGYTFTNYGVIWVRQAPGQGLEYMGWISAYNGNTNYAQKLQDRVTMTSDTSTTTAYMELRSLRSDDTAVYYCARELGSSFDYWGQGTLVTVSS
VL: SYELTQPPSVSVSPGQTARITCSGDALPKKYAYWYQQKSGQAPVLVIYEDIKRPSGIPERFSGSSSGTMATLTISGAQVEDEADYYCFSTDNSGDHSVFGGGTKLTVL
B3: 4B4 (antibody, IgG4, V domains shown)
VH: B2 VH
VL: B2 VL
B4: 2H10 (antibody, IgG4, V domains shown)
VH: QVQLVESGGGVVQPGRSLRLSCAASGFTFSRHGMHWVRQAPGKGLEWVAVVWFDGSNIYYADSVKGRFTISRDNSKNTLYLQMNSLRAEDTAMYYCARDSRIAAADYWGQGTLVTVSS
VL: SYELTQPPSVSVSPGQTVSITCSGDKLGDKYVCWYQQKPGQSPVLVIYQESKRPSGIPERFSGSSSGNTATLTISGTQAMDEADYYCQTWDSSLVVFGGGTKLTVL
B5: 1D4 (antibody, IgG4, V domains shown)
VH: QLQLQESGPGLVKPSETLSLTCTVSGGSISSSSYYWGWIRQPPGKGLEWIGSFYYSRSTYYNPSLKSRVTISVDTSKNQFSLKLSSVTAADTAVHYCARGSIAVPDAFDIWGQGTMVTVSS
VL: SYELTQPPSVSVSPGQTASITCSGDKLGDKFACWYQQKPGHSPVLVVYQDNKRPSGIPERFSGSNSGNSATLTISGTQAMDEADYYCQAWDSNTAVFGGGTKLTVL
B6: 3A7 (antibody, IgG4, V domains shown)
VH: EVQVVESGGGLVQPGGSLRLSCEASGFTFSNYWMIWVRQAPGKGLEWVASIKEDGSEKYYVDSVKGRFTISRDNAKSSLYLQMNSLRAEDTAVYYCVRDWELRGHYYYHGMDVWGQGTTVTVSS
VL: DIQMTQSPSSLSASVGDRVTITCRASLDIRNDLGWFLQKPGKAPKRLIYAASSLQSGVPSRFSGSGSGTEFTLTINSLQPEDFATYYCLQHRNYPFTFGPGTKVDFK
B7: 4B3 (antibody, IgG4, V domains shown)
VH: QVQLVQSGAEVRKSGASVKVSCKASGYSFTTYDINWVRQATGQGLEWMGWMNPNSGYTDYAQKFQGRVTLTRNMSIDTAYMELSSLRSEDTAVYYCARAYYYDSSAYYLFDYWGQGTLVTVSS
VL: DIQMTQSPSSLSASVGDRVTITCRASQGISNYLAWFQQKPGKAPKSLIYAASSLQSGVPSKFSGSGSGTDFTLTISSLQPEDFATYFCQQYISYPLTFGGGTKVEI
B8: 9G8 (antibody, IgG4, V domains shown)
VH: QLQLQESGPGLVKPSETLSLSCTVSGGSISSSSSYWGLIRQPPGKGLEWIGSIYYSGSTYYSPSLKSRVSISVDTSKNQFSLKLSSVTAADTAVYFCARQGYGGHPDVFDIWGQGTMVTVSS
VL: SSELTQSPSVSVSPGQTARITCSGDKLGDVYVCWYQQKTGQSPVLVIYEDTKRPSGIPERFSGSNSGNTATLTISGTQVMDEADYYCQAWDSTTAVIFGGGTKLTVL
B9: 12A1 (antibody, IgG4, V domains shown)
VH: QVQLVQSGAEVKRPGASVKVSCKASGYTFTSYGITWVRQAPGQGLEYMGWISTYNGNTDYAQKFQGRVTMTADISTSTAYMELRSLRSDDTAVYYCARERGSYFDYWGQGTLVTVSS
VL: SYELTQPPSVSVSPGQTARITCSGDTLPKKYAYWYQQKSGQAPVLVIYEDIKRPSGIPERFSGSSSGTMATLTISGAQVEDEADYYCFSTDSGGNHKFGGGTKLTVL
B10: 17F3 (antibody, IgG2, V domains shown)
VH: QVQLVQSGAEVKKPGASVKVSCKASGYTFTNYGISWVRQAPGQGLEWMGWINAYNGNTNYAQNLQGRVTMTTDTSTNTAYMELRSLRSDDTAVYYCARVAPAAFFDYWDQGTLVTVSS
VL: SYELTQPPSVSVSPGQTASITCSGDKLGDKYVCWYQQKPGQSPVLVIYQDNKRPSGIPERFSGSNSGNTATLIISGTQAMDEADYYCQAWDSSTVFGGGTKLTVL

Each binder was assayed against DLL4 extracellular domain (R&D systems, catalog #1506-D4/CF) (UniProt Q9NR61) (assay: cell-based or functional assay).
Sequence of DLL4 extracellular domain (R&D systems, catalog #1506-D4/CF) (Q9NR61 27-529 limits assumed): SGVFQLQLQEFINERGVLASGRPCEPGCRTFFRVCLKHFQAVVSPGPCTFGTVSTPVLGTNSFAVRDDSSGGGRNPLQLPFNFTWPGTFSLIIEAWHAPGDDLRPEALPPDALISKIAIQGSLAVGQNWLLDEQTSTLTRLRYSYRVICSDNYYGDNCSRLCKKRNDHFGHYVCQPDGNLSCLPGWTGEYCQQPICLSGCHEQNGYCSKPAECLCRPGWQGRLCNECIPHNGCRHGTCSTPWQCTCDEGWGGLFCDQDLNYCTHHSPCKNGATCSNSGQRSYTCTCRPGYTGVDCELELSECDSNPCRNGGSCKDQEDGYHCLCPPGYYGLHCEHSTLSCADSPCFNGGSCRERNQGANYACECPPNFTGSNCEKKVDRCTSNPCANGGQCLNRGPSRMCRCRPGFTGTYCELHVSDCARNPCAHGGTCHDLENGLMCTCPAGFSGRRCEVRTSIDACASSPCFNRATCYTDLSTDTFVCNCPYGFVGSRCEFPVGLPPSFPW

Row | Binder | % inhibition 1 µg/ml, AVERAGE (HUVEC proliferation on coated DLL4) [%] | % inhibition 1 µg/ml, N = 1 (HUVEC proliferation on coated DLL4) [%] | % inhibition 1 µg/ml, N = 2 (HUVEC proliferation on coated DLL4) [%] | % inhibition 10 µg/ml, AVERAGE (HUVEC proliferation on coated DLL4) [%] | % inhibition 10 µg/ml, N = 1 (HUVEC proliferation on coated DLL4) [%] | % inhibition 10 µg/ml, N = 2 (HUVEC proliferation on coated DLL4) [%]
1 | B1 | 85 | 94 | 75 | 98 | 103 | 93

What follows are binders tested against full length cynomolgus monkey DLL4 (cynomolgus monkey) (assay: FACS competition vs Notch1/Fc, HEK293 cells with cynomolgus DLL4).

Row | Binder | IC50 [nM]
2 | B2 | 0.5

Each binder was assayed against full length cynomolgus monkey DLL4 (cynomolgus monkey) (assay: FMAT, hybridoma supernatant, 293T cells with cynomolgus DLL4).

Row | Binder | Count | FL1 | FL1 x count
3 | B1 | 128 | 11200 | 1.44e+06
4 | B3 | 117 | 12300 | 1.04e+09
5 | B4 | 103 | 13100 | 1.35e+06
6 | B5 | 103 | 11700 | 1.21e+06
7 | B6 | 121 | 9960 | 1.2e+06
8 | B7 | 97 | 12600 | 1.22e+06
9 | B8 | 120 | 11700 | 1.41e+06
10 | B9 | 106 | 12900 | 1.37e+06
11 | B10 | 120 | 10700 | 1.29e+06

Each binder was assayed against full length cynomolgus monkey DLL4 (cynomolgus monkey) (assay: FACS titration, HEK293 cells with cynomolgus DLL4).

Row | Binder | Kd [nM]
12 | B2 | 0.081
